The values below come from paper PMC8498194.

The target of the test is hnRNP A1B (heterogenous ribonucleoprotein A1B), mouse (mouse (endogenous in C57BL6/N tissues)). Kind of test: SDS-PAGE immunoblot of tissue lysates (SDS-resistant band); 15 ug of mouse tissue lysate (2 month-old mice, CNS and peripheral tissues) on 12.5% SDS-PAGE, blotted with anti-hnRNP A1B (custom) or anti-hnRNP A1 (4B10). A general note: In western blotting, separated proteins are transferred to a membrane and probed.

By stoichiometry N is commonly meant the number of molecules, sites or subunits per partner or assembly.

Substance “hnRNP A1B (heterogenous ribonucleoprotein A1B), mouse (natural protein)” gave a stoichiometry N of 2.
